Target: VEGF (Homo sapiens, UniProt P15692-4 P15692-4:27-191)
Test: EMSA; 1:1 molar ratio, 3 h, room temperature, 100 mM phosphate neutral pH, 10% TBE gel; high MW complex band; confirmed by HPLC-SEC at 552 nm (FIG. 33)
Conditions: chain copies: 2; label: 5' Cy3
Description: The biological activity and therapeutic action of the anti-VEGF aptamer resides in its binding to its target: human recombinant VEGF. Without access to a growth factor, some cells will not be able to proliferate or survive; thus, these molecules are drug targets. Some drugs or drug candidates operate by binding to a growth factor; these molecules can be in the antibody (naturally produced or synthetically constructed) or the apatamer (nucleic acids) classes (e.g., any binding partner in theory). […] A shift mobility assay, using a 10% TBE gel, was used in order to assess the binding of HEP-aptamer to target (FIG. 32). […] As negative and positive control, VEGF was respectively incubated in the presence of heparosan (HEP) or heparin (i.e., VEGF is known to react with heparin and heparan sulfate).

VEGF, sequence (P15692 other isoform, or with tags, fused parts or gaps): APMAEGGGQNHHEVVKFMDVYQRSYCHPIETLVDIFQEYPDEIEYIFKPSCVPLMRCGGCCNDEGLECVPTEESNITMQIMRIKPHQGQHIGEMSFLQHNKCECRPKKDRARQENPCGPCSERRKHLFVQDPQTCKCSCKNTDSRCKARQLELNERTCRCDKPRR

ACCCGTCTTCCAGACAAGAGTGCAGGGTT (ssDNA, 3' C6 thiol coupled to heparosan (38.8- or 60-kDa chain)) [HEP-anti-VEGF DNA aptamer]
binding result: binds

— patent US20150118185, “Heparosan-Polypeptide and Heparosan-Polynucleotide Drug Conjugates and Methods of Making and Using Same” (The Board of Regents of the University of Oklahoma, published 2015)
